Source: patent US20100143368A1 (Bristol-Myers Squibb, published 2010)

Columns and labels:
[1] = biological target: T1, full-length human CD22 expressed on the cell surface (human, UniProt P20273 20-847); assay: flow cytometry (FACS Array) on CHO cells transfected with full-length CD22, goat anti-human IgG-PE
T1 construct: One molecule is used both for CHO transfectants with the full-length CD22 cDNA and for endogenous CD22 on Raji/Daudi cells; also called CHO-CD22; CHO cells transfected with full-length CD22
T1 sequence (looked up): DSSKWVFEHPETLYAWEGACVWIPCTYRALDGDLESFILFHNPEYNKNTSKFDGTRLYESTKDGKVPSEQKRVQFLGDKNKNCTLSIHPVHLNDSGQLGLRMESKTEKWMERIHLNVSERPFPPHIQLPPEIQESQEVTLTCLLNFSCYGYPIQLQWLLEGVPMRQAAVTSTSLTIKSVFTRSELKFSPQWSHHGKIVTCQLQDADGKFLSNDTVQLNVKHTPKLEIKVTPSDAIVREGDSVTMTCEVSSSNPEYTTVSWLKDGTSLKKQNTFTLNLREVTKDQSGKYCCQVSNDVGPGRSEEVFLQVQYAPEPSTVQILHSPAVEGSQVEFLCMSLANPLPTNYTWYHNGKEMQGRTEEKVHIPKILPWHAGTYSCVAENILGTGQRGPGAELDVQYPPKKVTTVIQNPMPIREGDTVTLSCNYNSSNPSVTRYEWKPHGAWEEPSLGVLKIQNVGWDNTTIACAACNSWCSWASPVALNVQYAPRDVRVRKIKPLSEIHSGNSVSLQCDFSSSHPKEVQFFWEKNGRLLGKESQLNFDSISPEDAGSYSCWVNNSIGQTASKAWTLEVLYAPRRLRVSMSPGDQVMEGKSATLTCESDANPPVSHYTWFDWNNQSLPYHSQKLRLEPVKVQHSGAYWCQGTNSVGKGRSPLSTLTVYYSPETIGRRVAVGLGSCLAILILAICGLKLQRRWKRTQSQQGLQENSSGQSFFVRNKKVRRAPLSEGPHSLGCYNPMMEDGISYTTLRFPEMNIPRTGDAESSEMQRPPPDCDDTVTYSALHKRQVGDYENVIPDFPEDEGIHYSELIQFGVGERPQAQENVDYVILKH

[2] = biological target: T2, recombinant human CD22 extracellular domain with C-terminal hexahistidine tag (human, UniProt P20273 20-687); assay: SPR (BIAcore 3000); CD22 ECD-His captured by anti-His mAb on CM5 chip, antibody injected at 20 µg/mL
T2 construct: The whole entry is named here; also called CD22 ECD; CD22β extracellular domain
T2 sequence: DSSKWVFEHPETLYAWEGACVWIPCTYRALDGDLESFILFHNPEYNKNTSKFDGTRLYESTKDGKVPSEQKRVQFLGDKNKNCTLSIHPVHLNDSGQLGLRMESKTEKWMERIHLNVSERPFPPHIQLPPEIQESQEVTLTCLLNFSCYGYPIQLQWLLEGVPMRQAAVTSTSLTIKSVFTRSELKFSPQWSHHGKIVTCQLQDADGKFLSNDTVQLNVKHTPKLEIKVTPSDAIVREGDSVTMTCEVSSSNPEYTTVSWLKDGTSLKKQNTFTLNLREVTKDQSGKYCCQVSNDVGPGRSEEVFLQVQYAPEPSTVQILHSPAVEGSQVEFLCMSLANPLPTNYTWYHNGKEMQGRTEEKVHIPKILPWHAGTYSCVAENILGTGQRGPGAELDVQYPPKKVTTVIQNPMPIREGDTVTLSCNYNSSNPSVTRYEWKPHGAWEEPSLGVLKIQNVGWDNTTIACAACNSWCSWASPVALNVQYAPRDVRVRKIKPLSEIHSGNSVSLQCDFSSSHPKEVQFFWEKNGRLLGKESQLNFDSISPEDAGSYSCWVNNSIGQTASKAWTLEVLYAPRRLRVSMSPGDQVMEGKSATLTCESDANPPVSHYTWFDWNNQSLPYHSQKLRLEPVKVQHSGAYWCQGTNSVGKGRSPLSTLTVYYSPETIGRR
Method: For determination of antibody affinity (KD), experiments were performed in which the CD22 antigen was captured on a BIAcore chip using an antibody to the His tag present on the antigen. Anti-His monoclonal antibody ab15149 (Abcam, Stock conc.0.5 mg/mL) was coated on a CM5 chip at high density (3500RUs), as recommended by the manufacturer. CD22 ECD (6.6 μg/mL) was captured on this surface for 60 sec at a flow-rate of 6 μL/min. A single concentration (20 μg/mL) of anti-CD22 purified mAbs was injected over the captured antigen with an association time of 5 minutes and a dissociation time of 8 minutes, at a flow rate of […]. The chip surface was regenerated after each cycle with 10 μL of 25 mM NaOH. Isotype controls were run on the chip and the data used to subtract non-specific binding. All experiments were carried out on a BIAcore 3000 surface plasmon resonance instrument, using BIAcore Control software v 3.2. Data analysis was carried out using BiaEvaluation v. 3.2 software.
Fourteen of the selected anti-CD22 antibodies were tested in the affinity experiment.

B1: recombinant human anti-CD22 monoclonal antibody CD22.1 (antibody, human IgG1, V domains shown)
VH: QVQLQQWGAGLLKPSETLSLTCAVYGRSFSSYYWSWIRQPPGKGLEWIGDINHSGSTNYNPSLKSRVTISVDTSKNQFSLKLSSVTAADTAVYYCAGTFYDILTGYYPLGYWGPGTLVTVSS
VL: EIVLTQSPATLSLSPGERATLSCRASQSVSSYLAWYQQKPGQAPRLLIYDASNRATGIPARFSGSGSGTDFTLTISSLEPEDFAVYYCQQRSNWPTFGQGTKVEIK
notes: also called 19A3 expressed in CHO cells (clone 8G9)
For B1, the “EC50 (read off the curve)” value [1] was about 0.3 µg/mL.

B2: anti-CD22 human monoclonal antibody 19A3 (antibody, IgG1, V domains shown)
VH: QVQLQQWGAGLLKPSETLSLTCAVYGRSFSSYYWSWIRQPPGKGLEWIGDINHSGSTNYNPSLKSRVTISVDTSKNQFSLKLSSVTAADTAVYYCAGTFYDILTGYYPLGYWGPGTLVTVSS
VL: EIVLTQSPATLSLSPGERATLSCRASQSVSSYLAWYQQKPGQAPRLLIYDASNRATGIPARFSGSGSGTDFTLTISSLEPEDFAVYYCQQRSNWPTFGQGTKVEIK
notes: Hybridoma-derived; also called parental antibody 19A3
For B2, the Kd [2] was 0.15 nM.

B3: recombinant human anti-CD22 monoclonal antibody CD22.2 (antibody, human IgG1, V domains shown)
VH: QVQLQQWGAGLLKPSETLSLTCAVYGRSFSSYYWSWIRQPPGKGLEWIGDIQHSGSTNYNPSLKSRVTISVDTSKNQFSLKLSSVTAADTAVYYCAGTFYDILTGYYPLGYWGPGTLVTVSS
VL: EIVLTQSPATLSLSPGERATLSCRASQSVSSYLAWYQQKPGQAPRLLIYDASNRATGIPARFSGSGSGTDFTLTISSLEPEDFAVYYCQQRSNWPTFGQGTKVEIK
notes: Variant of 19A3 with N57Q, which removes the N-glycosylation site in VH CDR2; also called 19A3 VH N57Q variant (clone 17E11)
In the case of B3, the “EC50 (read off the curve)” value [1] is reported as about 0.3 µg/mL.

B4: anti-CD22 human monoclonal antibody 12C5 (antibody, IgG1, V domains shown)
VH: QVQLVQSGSELKKPGASVKVSCKASGYTFTSYAMNWVRQAPGQGLEWMGWINTNTGNPTYAQGFTGRFVFSLDTSVSTAYLQISSLKAEDTAVYYCARLFYYYFGMDVWGQGTTVTVSS
VL: QSALTQPASVSGSPGQSITISCTGTSSDVGSYNLVSWYQLHPGKAPKLMIYEVSKRPSGVSNRFSGSRSGNTASLTISGLQAEDEADYYCCSYANSSTLVFGGGTKLTVL
notes: Hybridoma-derived
Work on B4 yielded a Kd [2] of 0.23 nM.
